The text below walks through data of US20100221257A1 (AstraZeneca / MedImmune, published 2010).

Test [1] deals with T1, human IL-1R1, endogenous on human cells (HeLa cells; whole blood) (human, UniProt P14778 18-569).
T1 sequence (looked up): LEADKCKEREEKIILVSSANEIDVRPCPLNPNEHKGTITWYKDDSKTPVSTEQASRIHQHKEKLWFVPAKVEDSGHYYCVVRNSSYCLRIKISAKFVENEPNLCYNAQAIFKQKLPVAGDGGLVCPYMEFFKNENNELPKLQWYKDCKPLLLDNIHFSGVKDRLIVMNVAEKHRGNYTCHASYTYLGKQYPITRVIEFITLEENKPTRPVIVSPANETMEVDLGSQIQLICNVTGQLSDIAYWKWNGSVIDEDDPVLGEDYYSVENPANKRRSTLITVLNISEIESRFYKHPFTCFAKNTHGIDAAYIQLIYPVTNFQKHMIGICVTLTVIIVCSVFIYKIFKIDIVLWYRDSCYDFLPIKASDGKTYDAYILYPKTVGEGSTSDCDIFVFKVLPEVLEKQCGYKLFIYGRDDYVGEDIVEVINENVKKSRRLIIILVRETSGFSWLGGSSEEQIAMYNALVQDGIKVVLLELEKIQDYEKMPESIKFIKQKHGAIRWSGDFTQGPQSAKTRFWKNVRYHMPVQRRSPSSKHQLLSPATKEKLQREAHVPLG
Description: cell-based or functional assay.

Test [2] concerns the target T2, human recombinant IL1sRII (human, UniProt P27930 14-343).
T2 construct: also called Human IL1sRII
T2 sequence (looked up): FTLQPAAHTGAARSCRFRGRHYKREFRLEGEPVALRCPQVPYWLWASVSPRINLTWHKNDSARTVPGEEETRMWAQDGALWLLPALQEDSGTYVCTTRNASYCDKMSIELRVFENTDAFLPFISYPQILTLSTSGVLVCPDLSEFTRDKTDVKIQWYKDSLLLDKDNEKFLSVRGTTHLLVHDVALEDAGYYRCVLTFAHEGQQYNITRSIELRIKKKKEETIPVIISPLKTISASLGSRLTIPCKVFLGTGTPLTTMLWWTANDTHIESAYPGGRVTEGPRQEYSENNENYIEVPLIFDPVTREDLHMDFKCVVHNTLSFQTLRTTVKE
Description: DELFIA epitope competition; no inhibition of biotinylated huIL-1RFc binding to the adsorbed IgG. The procedure:
Titrations of non biotinylated purified human recombinant IL1sRII (R&D Systems), human recombinant IL-1R6/IL1 R rpt/Fc (R&D Systems), human recombinant IL18R alpha/IL-1 R5/Fc (R&D systems) and recombinant human IL-1 R4 (ST2)/Fc (R&D systems) were tested in each assay to establish the potency for each structurally related family member, as measured by IC₅₀ values in the assay.
Purified IgG were adsorbed onto 96-well Maxisorp microtitre plates (Nunc) in PBS at a concentration which gave a significant signal when biotinylated human HIS IL1RFc was added at approximately its estimated KD for that particular IgG. Excess IgG was washed away with PBS-Tween (0.1% v/v) and the wells were blocked with non-fat dried milk in PBS (3% w/v) for 1 h. […] Non-biotinylated human HIS IL1RFc was included as a positive control. 25 μl of this dilution series was added to the blocked IgG assay plate.
25 μl of 1.4 nM biotinylated human HIS IL1RFc was added to the assay plate. The plate was then sealed and incubated at room temperature for 2 h. Unbound antigen was removed by washing with PBS-Tween (0.1% v/v), while the remaining biotinylated human IL1RFc was detected by streptavidin-Europium3+ conjugate (DELFIA® detection, PerkinElmer). Time-resolved fluorescence was measured at 620 nm on an EnVision plate reader (PerkinElmer). Fluorescence data was plotted as europium counts. IC₅₀ values were determined using GraphPad Prism software by curve fitting using a four-parameter logistic equation (Equation 3).

For test [3], the target named is T1, human IL-1R1, endogenous on human cells …. The test can be described thus: cell-based or functional assay. The source holds these as a separate data set.
The target is the same in test [4]. Description: cell-based or functional assay. This is another data set of the same source.

B1: Antibody 6GL IgG2 (antibody, V domains shown)
VH: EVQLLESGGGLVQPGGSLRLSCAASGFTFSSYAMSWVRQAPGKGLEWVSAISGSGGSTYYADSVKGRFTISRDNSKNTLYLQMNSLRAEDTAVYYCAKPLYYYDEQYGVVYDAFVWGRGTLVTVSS
VL: QSVLTQPPSVSGAPGQRVTISCTGSSSNIGAGYDVHWYQQLPGTAPKLLIYGDTHRPSGVPDRFSGSKSGTSASLAITGLQAEDEADYYCQSYDTVRLHHVFGGGTKLTVL
notes: Germlined IgG2, lambda light chain; also called Antibody 6 IgG2; 28PL GL
In the case of B1, in test [1], the “IC50, inhibition of IL-1 alpha induced IL-8 release in HeLa cells (GL IgG2)” value was found to be 0.0031 nM and the “IC50, inhibition of IL-1 beta induced IL-8 release in HeLa cells (GL IgG2)” value came out at 0.0119 nM. The binding result in test [2] is “no binding”. Also, the “mean IC50 for the 6 donors, inhibition of IL-1β induced IL-6 production in human whole blood” value in test [3] was determined as 0.229 nM. Moreover, in test [4], the “IC50, inhibition of IL-1β induced IL-6 production in human whole blood, donor 1” value is 0.091 nM; the “IC50, inhibition of IL-1β induced IL-6 production in human whole blood, donor 2” value was found to be 0.295 nM; the “IC50, inhibition of IL-1β induced IL-6 production in human whole blood, donor 3” value was found to be 0.116 nM; the “IC50, inhibition of IL-1β induced IL-6 production in human whole blood, donor 4” value amounted to 0.309 nM. In test [4], the “IC50, inhibition of IL-1β induced IL-6 production in human whole blood, donor 5” value was found to be 0.167 nM and the “IC50, inhibition of IL-1β induced IL-6 production in human whole blood, donor 6” value turned out to be 0.321 nM.

B2: Antibody 8GL IgG2 (antibody, V domains shown)
VH: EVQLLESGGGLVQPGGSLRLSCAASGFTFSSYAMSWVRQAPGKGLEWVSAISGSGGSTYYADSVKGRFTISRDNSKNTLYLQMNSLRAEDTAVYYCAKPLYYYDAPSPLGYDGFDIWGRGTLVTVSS
VL: QSVLTQPPSVSGAPGQRVTISCTGSSSNIGAGYDVHWYQQLPGTAPKLLIYGDTHRPSGVPDRFSGSKSGTSASLAITGLQAEDEADYYCQSYDTHLVAHVFGGGTKLTVL
notes: Germlined IgG2, lambda light chain
B2: in test [1], the “IC50, inhibition of IL-1 alpha induced IL-8 release in HeLa cells (GL IgG2)” value amounted to 0.197 nM and the “IC50, inhibition of IL-1 beta induced IL-8 release in HeLa cells (GL IgG2)” value was 0.0419 nM. Further, the binding result in test [2] is given as “no binding”.

B3: Antibody 10GL IgG2 (antibody, V domains shown)
VH: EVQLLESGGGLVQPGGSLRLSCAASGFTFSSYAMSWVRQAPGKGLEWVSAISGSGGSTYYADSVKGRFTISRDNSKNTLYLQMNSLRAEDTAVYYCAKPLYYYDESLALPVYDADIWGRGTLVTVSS
VL: QSVLTQPPSVSGAPGQRVTISCTGSSSNIGAGYDVHWYQQLPGTAPKLLIYGDTHRPSGVPDRFSGSKSGTSASLAITGLQAEDEADYYCQSYDTRADDAHFGGGTKLTVL
notes: as for B2
Consider B3, for which, in test [1], the “IC50, inhibition of IL-1 alpha induced IL-8 release in HeLa cells (GL IgG2)” value is 0.0138 nM and the “IC50, inhibition of IL-1 beta induced IL-8 release in HeLa cells (GL IgG2)” value is 0.0242 nM. Further, the binding result in test [2] is “no binding”.
